Experimental data: US20220267379A1, “NOVEL INHIBITORS OF […] AND USES THEREOF” (Ecole Polytechnique Federale de Lausanne (EPFL), priority 2019, published 2022)
Positions of bridges follow the written chain, without caps; N, C: chain ends. Non-standard residues stand in square brackets, D forms with d. Chains are numbered I, II in the order given. No end group written: not given here. *: point of attachment. Palmitoyl = CCCCCCCCCCCCCCCC(=O)*; hArg = N=C(N)NCCCC[C@H](N)C(=O)O; Nle = CCCC[C@H](N)C(=O)O

Legend:
[1] = molecular target: T1, human Kallikrein-related peptidase 7 (hKLK7) (human), P49862; test: enzyme inhibition; 2,6-bis(bromomethyl)pyridine linker; details: modification not given
Target sequence in this assay (P49862 30-253): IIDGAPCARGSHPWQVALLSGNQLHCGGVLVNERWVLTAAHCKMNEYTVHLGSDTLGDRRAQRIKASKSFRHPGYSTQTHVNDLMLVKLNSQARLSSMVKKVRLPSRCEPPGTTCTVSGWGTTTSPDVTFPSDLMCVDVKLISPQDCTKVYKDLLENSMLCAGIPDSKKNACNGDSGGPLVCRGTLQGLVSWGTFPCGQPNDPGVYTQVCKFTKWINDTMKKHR

[2] = molecular target: T1, human Kallikrein-related peptidase 7 …; test: enzyme inhibition; ketone linker; details: modification not given
Target sequence in this assay (P49862 30-253): as above

[3] = molecular target: T1, human Kallikrein-related peptidase 7 …; test: enzyme inhibition; pyridine linker; details: modification not given
Target sequence in this assay (P49862 30-253): as above

[4] = molecular target: T1, human Kallikrein-related peptidase 7 …; test: enzyme inhibition; 1,3-dibromoacetone linker; details: modification not given
Target sequence in this assay (P49862 30-253): as above

[5] = molecular target: human Kallikrein-related peptidase 5 (hKLK5) (human), Q9Y337; test: enzyme inhibition; 2,6-bis(bromomethyl)pyridine linker; details: modification not given
[6] = molecular target: T1, human Kallikrein-related peptidase 7 …; test: substrate-based activity assay
Target sequence in this assay (P49862 30-253 limits assumed): as the sequence (P49862 30-253) above

[7] = molecular target: human serum albumin (HSA) (human), P02768; test: fluorescence polarization

Chain of human Kallikrein-related peptidase 5 (hKLK5) (human), Q9Y337 (Q9Y337 67-293): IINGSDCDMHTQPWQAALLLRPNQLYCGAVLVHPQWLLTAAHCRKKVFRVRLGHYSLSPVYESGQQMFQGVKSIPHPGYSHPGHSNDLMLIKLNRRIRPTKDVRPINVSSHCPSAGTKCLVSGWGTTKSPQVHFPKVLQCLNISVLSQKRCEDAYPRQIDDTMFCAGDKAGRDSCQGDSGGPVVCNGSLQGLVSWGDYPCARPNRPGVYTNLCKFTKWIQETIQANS

B1: 009 (peptide)
chain: QCLYIACPSAAKCDNGCQ
Binder B1 has a Ki [1] of 32 nM.

B2: 095 (peptide)
chain: PCLYLSRCS
Binder B2 has a Ki [2] of 90 nM.

B3: 086 (peptide)
chain: PCLYRSCS
B3 was tested, and the Ki [3] was 53 nM.

B4: 008 (peptide)
chain: HCRKGLDRCPQCLYRTCS
With B4 the Ki [1] was 66 nM.

B5: 012 (peptide)
chain: FCLWPWCQPPEACPSQCE
Work on B5 yielded a Ki [4] of over 1000 nM.

B6: 007 (peptide)
chain: RCDSSQCMQGQCLYRSCP
In the case of B6, the Ki [1] is reported as 94 nM.

B7: 080 (peptide)
chain: PCLYLSCS
With B7 the Ki [3] was 29.4 nM.

B8: 109 (peptide)
chain: PCLYLAC
B8 gave a Ki [3] of 19 nM.

B9: 003 (peptide)
chain: ACTREYNPQCANPQCLCH
With B9 the Ki [5] was 6 nM.

B10: 088 (peptide)
chain: PCLYLTCS
Work on B10 yielded a Ki [3] of 52 nM.

B11: 112 (peptide)
chain: PCLYLAQCS
With B11 the Ki [2] was 36 nM.

B12: 081 (peptide)
chain: QCLYLSCS
Binder B12 has a Ki [3] of 12 nM.

B13: 087 (peptide)
chain: PCLYLACS
B13 showed a Ki [3] of 17.5 nM.

B14: 089 (peptide)
chain: PCLYLSCP
B14 gave a Ki [3] of 50 nM.

B15: 111 (peptide)
chain: PCLYMARCS
Binder B15 has a Ki [2] of 10 nM.

B16: 082 (peptide)
chain: RCLYLSCS
Work on B16 yielded a Ki [3] of 8.8 nM.

B17: KLK7 inhibitor 278-tag (final KLK7 inhibitor) (peptide)
peptide 1: PCLY[Nle]A[hArg]CGKG
peptide 2: EYEK(Palmitoyl)EYE
modifications: bridge I:2-I:8; not fully specified (some residues, N-terminus, bridges); also: chain 2 (albumin tag) attached via PEG2 to Lys10 side chain of chain 1 (branched)
B17 showed a Ki [6] of 7.4 nM and a Kd [7] of 164 nM.
